Columns and labels:
Tie2 receptor = molecular target: T1, Tie2 receptor (Mus musculus, UniProt Q02858); experiment: Tie2 activation in vivo (Tie2 immunoprecipitation from lung lysates, pY Tie2 western blot); set-up: species or system CD1 mice; conditions: for time points at which activation of Tie2 (pY Tie2) was evident: pooled lung lysates of three mice
T1 construct: from tissue; host or cells: lung of CD1 mice (in vivo dosing, lung homogenate)
Experimental: The following commercially available antibodies were used: monoclonal anti-Tie2 (Phaminogen), polyclonal anti-Tie2 (Santa Cruz Biotechnology) and monoclonal anti-pY (clone 4G10, Upstate Biotechnology). Lung lysates were prepared and immunoprecipitated in full RIPA buffer (50 mM Tris-HCl, pH 7.4, 150 mM NaCl, 1 mM PMSF, 1 mM EDTA, 5 μg/ml Aprotinin 5 μg/ml Leupeptin, 1% Triton x-100, 1% Sodium deoxycholate, 0.1% SDS). Proteins were resolved in 10% PAGE according to Laemlli and transferred to PVDF membrane for subsequent antibody probing.
Purified Vasculotide was examined for its ability to activate the Tie2 receptor tyrosine kinase in CD1 mice (FIG. 1A). Three mice per group were injected intraperitoneally (IP) with either Vasculotide (500 ng-12.5 μg) or vehicle (PBS) control. After one hour, mice were sacrificed and lung homogenates were prepared for immunoblot analysis. […] This effect is particularly evident when total protein loading is accounted for (see pan Tie2, lower panel). While this may seem somewhat paradoxical, this phenomenon has also been reported by others while investigating the effect of Ang1 on Tie2 activation (Brkovic et al. (2007) J. Leukoc. Biol. 81(4), 1093-1101), Sturn et al. (2005) Microcirculation 12(5), 393-403, Murdoch et al. (2007) J Immunol 178(11), 7405-7411, van der Geer et al. (1994) Ann. Rev. Cell Biol. 10, 251-337, Gruber et al. (1995) Blood 86(7), 2488-2493, Maliba et al. (2008) J. Leukoc. Biol. 83(2), 352-360, and Van Slyke et al. (2009) Tissue Eng. Part A 15(6), 1269-1280).
To assess the duration of Tie2 activation following Vasculotide administration, three mice per time point were injected with 2 μg intraperitoneally (I.P.) or by gavage (P.O.). Lung lysates were prepared from each of the mice at the indicated times following initial dosing (FIG. 1B). Equal quantities of protein from each group were pooled and immunoprecipitated for Tie2 to establish an average Tie2 activation for each group. Activation of Tie2 (see pY Tie2, upper panels) was evident at time points ranging from 24-72 hours in the I.P. injected mice. By 96 hours post injection, the Tie2 receptor phosphorylation had returned to basal (PBS stimulated) levels.

Eo/B progenitors = experiment: Modulation of eosinophil/basophil progenitors (Eo/B-CFU); type: cell-based; conditions: preliminary data
Experimental: Thus, Eo/B from mice and healthy donors are isolated. Eosinophils from the periphery or bone marrow are enriched by magnetic bead sorting using anti CD125 (IL-5Ra) conjugated to magnetic particles. These cells preparations are stimulated with either recombinant Ang1 or Vasculotide and different cellular parameters are measured, including cellular growth, apoptosis, migration and Tie2-specific cellular signaling.
To examine the effect of Vasculotide on Eo/B progenitors, bone marrow colony assays are performed. Human bone marrow preparations are purchased from Stem Cell Technologies (Vancouver, BC) and murine bone marrow are obtained by flushing femurs of normal mice. Non-adherent mononuclear cells are cultured in MethoCult supplemented with IL-5 to optimize for eosinophil/basophil colony formation (Eo/B-CFU). […] The appearance of Eo/B-CFU is measured.
Eo/Bs and their progenitors are harvested from Vasculotide treated asthmatic animals from the periphery or bone marrow. In order to establish an Eo/B cellular profile treated and non-treated animals are harvested on week 1, 2, 4 and 6 and the number of Eo/Bs in the periphery, bone marrow and progenitors is determined. The number of peripheral and bone marrow eosinophils is determined by flow cytometry analysis using Ly6G, CD11b, IgE and free FITC markers. Eo/B progenitors in the bone marrow are measured by Eo/B-CFU assay.

T1 sequence (Q02858 23-1122): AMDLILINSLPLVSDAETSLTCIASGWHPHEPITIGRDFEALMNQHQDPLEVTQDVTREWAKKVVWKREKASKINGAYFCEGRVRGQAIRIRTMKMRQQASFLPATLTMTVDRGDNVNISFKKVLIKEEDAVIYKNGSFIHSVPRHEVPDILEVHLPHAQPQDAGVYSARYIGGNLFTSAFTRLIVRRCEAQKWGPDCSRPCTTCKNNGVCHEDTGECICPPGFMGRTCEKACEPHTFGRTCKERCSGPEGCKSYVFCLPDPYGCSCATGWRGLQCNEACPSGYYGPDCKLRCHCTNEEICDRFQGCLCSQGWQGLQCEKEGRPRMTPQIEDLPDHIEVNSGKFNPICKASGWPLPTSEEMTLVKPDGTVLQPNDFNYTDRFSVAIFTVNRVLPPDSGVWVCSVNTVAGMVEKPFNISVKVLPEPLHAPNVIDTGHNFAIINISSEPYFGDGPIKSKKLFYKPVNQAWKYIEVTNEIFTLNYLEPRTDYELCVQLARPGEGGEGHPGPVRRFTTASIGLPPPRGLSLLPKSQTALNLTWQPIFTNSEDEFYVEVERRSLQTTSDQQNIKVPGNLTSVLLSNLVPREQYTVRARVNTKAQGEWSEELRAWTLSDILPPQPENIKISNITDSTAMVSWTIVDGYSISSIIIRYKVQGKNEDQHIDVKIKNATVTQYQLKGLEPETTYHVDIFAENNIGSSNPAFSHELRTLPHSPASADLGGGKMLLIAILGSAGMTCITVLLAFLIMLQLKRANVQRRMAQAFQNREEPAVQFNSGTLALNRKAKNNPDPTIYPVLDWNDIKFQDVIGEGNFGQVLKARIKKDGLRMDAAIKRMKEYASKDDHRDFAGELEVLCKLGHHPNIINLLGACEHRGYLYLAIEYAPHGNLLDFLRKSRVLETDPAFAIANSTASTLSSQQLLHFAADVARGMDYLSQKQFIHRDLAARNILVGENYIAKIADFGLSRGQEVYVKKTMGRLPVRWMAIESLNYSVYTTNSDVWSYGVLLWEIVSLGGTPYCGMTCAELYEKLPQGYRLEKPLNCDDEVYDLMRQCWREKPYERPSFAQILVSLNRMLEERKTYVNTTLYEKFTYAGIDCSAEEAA

time points at which activation of Tie2 (pY Tie2) was evident (Tie2 receptor; 2 μg I.P.): 24-72 hours | time points at which activation of Tie2 (pY Tie2) was evident (Tie2 receptor; 2 μg I.P., listed as Vasc-PEG): at least 72 hours | time by which Tie2 receptor phosphorylation had returned to basal (PBS stimulated) levels (Tie2 receptor; 2 μg I.P., post injection): 96 h | Tie2 phosphorylation after gavage (oral availability) (Tie2 receptor; 2 μg P.O., two hours post gavage): did not yield increased activation | Tie2 receptor-activating activity at higher doses (Tie2 receptor; I.P. doses above 500 ng up to 12.5 μg, 1 hour): reduced receptor-activating activity | dose that activated Tie2 optimally (pY Tie2) (Tie2 receptor; I.P., 1 hour in circulation, lung homogenates, doses 500 ng-12.5 μg): 500 ng/25-30 g mouse
Substance: Vasculotide: Modified T7 peptide (CHHHRHSF, SEQ ID NO:2) conjugated to 10 kDa tetrameric polyethylene glycol-maleimide; Tie2 binding peptide mimetic
effect on Eo/B progenitors (Eo/B progenitors): impacts the Eo/B progenitors directly

Reference: patent publication US9186390B2, “Methods and uses of TIE2 binding and/or activating agents” (Sunnybrook Health Sciences Center, priority 2010, dated 2015)
